Like-named read-outs stand apart in the source and are kept apart here. Non-standard residues stand in square brackets, D forms with d. Residues, ends and D or L forms follow the SMILES beside them. No end group written: not given here. pS = N[C@@H](COP(=O)(O)O)C(=O)O
Assays:
[1] = molecular target: 14-3-3 proteins (all seven isoforms); experiment: Fluorescence polarization titration, statements across the 14-3-3 isoforms; format: binding, human
Method: TASK-1 or TASK-3 C-terminal fluorescent peptides (10 nM), comprising the last 15 amino acids of the respective C-termini, were titrated with concentrations of the 14-3-3 proteins ranging from 1 nM to 120 µM (Fig. 2), and the equilibrium dissociation constants of 14-3-3 proteins were calculated for TASK-1 phosphorylated at S393 (TASK-1 pS393; the conserved serine residue of the mode III 14-3-3-binding motif) and for TASK-3 phosphorylated at S373 (TASK-3 pS373) (Table 1). They ranged from 7.5±0.14 µM (mean±s.e.m.; 14-3-3β) to 49.4±2 µM (14-3-3τ) for TASK-1, whereas dissociation constants for TASK-3 ranged from 110±10 nM (14-3-3η) to 3.6±0.44 µM (14-3-3σ). The latter value matches the result determined previously by [Anders et al. (2013]) for the TASK-3 C-terminal hexapeptide using isothermal titration calorimetry. The dissociation constants of the seven mammalian 14-3-3 isoforms for the same TASK C-terminal peptide differed up to sevenfold for TASK-1-derived peptides and up to 30-fold for TASK-3-derived peptides. […] No binding of any 14-3-3 isoform to any TASK C-terminal peptide was observed when the peptides were not phosphorylated.
Fig. 2. […] Fluorescence polarization titration of fluorescein-labeled TASK-1 pS393 (black), TASK-3 pS373 (red) and TASK-3 pS373 ΔV374 (blue) peptide (10 nM) with increasing concentrations of the indicated 14-3-3 isoform. Fluorescein was excited at 485 nm, and fluorescence polarization was monitored at 535 nm. A monophasic fit was used to fit the data (Goodness-of-fit: R^2 from 0.76 to 0.98). No binding was detectable for the unphosphorylated TASK C-terminal peptides. The assay was repeated at least six times for each data point with two batches of independently purified 14-3-3 proteins. Error bars depict s.e.m. (A) 14-3-3β, (B) 14-3-3γ, (C) 14-3-3ε, (D) 14-3-3ζ, (E) 14-3-3η and (F) 14-3-3τ.
[Mant et al. (2011)] report that both serine residues present in the TASK-1 C-terminus can be phosphorylated in vitro by the recombinant catalytic subunit of PKA. […] Next, using fluorescence polarization titration, we determined how phosphorylation of S392 affects the affinity of all seven mammalian 14-3-3 proteins for the TASK-1 C-terminus – either when phosphorylated alone or in combination with phosphorylation of S393 (Table S1). […] Because all Kd values determined for TASK-1 pS392 and the doubly phosphorylated protein (at S392 and S393) were substantially higher than those measured for TASK-1 pS393 (Table S1), we conclude that phosphorylation of S392 cannot substitute for phosphorylated S393 in creating a high-affinity 14-3-3 binding site. On the contrary, our results are consistent with an inhibitory role for phosphorylation of S392 with respect to 14-3-3-mediated binding.
Interactions between 14-3-3 proteins and TASK-1 and TASK-3 C-terminal peptides and variants were investigated using a fluorescence polarization assay ([Moll et al., 2006]; [Muda et al., 2014]). Fluorescein-labeled peptides were purchased from Peps4Life Sciences (Heidelberg, Germany). All measurements were performed in buffer containing 20 mM MOPS, 150 mM NaCl, 0.005% (v/v) CHAPS pH 7.0, using a Fusion™ α-FP microtiter plate reader at room temperature in a 384-well microtiter plater (Optiplate 384, black; Packard, Meriden, CT). 14-3-3 proteins were serially diluted from 100 µM to 1 nM and incubated with 10 nM of fluorescently labeled peptide. The fluorescence polarization signal was detected for 2 s at an excitation wavelength of 485 nm with an emission fluorescence polarization filter wavelength of 535 nm and a photomultiplier voltage of 1100. Data were analyzed with GraphPad Prism 6.0 (GraphPad Software, San Diego, CA) by plotting the obtained fluorescence polarization signal in millipolarization units (mPol) against the logarithm of the 14-3-3 protein concentration. The data were then fitted using a monophasic fit.

[2] = molecular target: TASK-1 pS392 C-terminal fluorescent peptide (human) (UniProt O14649); experiment: fluorescence polarisation; 10 nM fluorescein-labelled peptide titrated with 14-3-3 protein (1 nM to 120 µM in the results, 100 µM to 1 nM in the methods); 20 mM MOPS, 150 mM NaCl, 0.005% (v/v) CHAPS pH 7.0; room temperature; monophasic fit
[3] = molecular target: TASK-3 pS373 C-terminal fluorescent peptide (last 15 amino acids) (human) (UniProt Q9NPC2); experiment: as above
[4] = molecular target: GST-tagged TASK-3 C-terminal 15 residues fusion protein, phosphorylated with PKA catalytic subunit (human) (UniProt Q9NPC2); experiment: SPR; GST fusion protein captured by an anti-GST antibody on an HC1000m chip, phosphorylated on the chip with PKA catalytic subunit; 14-3-3 proteins as analyte; 20°C; 150 mM NaCl, 20 mM HEPES, 0.005% (v/v) Tween 20, pH 7.5; equilibrium binding isotherms
[5] = molecular target: TASK-1 pS393 C-terminal fluorescent peptide (last 15 amino acids) (human) (UniProt O14649); experiment: fluorescence polarisation; 10 nM fluorescein-labelled peptide titrated with 14-3-3 protein (1 nM to 120 µM in the results, 100 µM to 1 nM in the methods); 20 mM MOPS, 150 mM NaCl, 0.005% (v/v) CHAPS pH 7.0; room temperature; monophasic fit
[6] = molecular target: T1, GST-tagged TASK-3 C-terminal 15 residues fusion protein, phosphorylated with PKA catalytic subunit (human, UniProt Q9NPC2 360-374); experiment: SPR
T1 chain: {GST}-SFTDHQRLMKRRK[pS]V

[7] = fluorescence polarization, best of the seven isoforms, read-out: Kd of the highest-affinity 14-3-3 interaction

CSCC[C@H](NC(=O)[C@H](CC(C)C)NC(=O)[C@H](CCCNC(=N)N)NC(=O)[C@H](CCC(N)=O)NC(=O)[C@H](Cc1c[nH]cn1)NC(=O)[C@H](CC(=O)O)NC(=O)[C@@H](NC(=O)[C@H](Cc1ccccc1)NC(=O)[C@H](CO)NC(=O)[C@@H](N)CS)[C@@H](C)O)C(=O)N[C@@H](CCCCN)C(=O)N[C@@H](CCCNC(=N)N)C(=O)N[C@@H](CCCNC(=N)N)C(=O)N[C@@H](CCCCN)C(=O)N[C@@H](COP(=O)(O)O)C(=O)N[C@H](C(=O)O)C(C)C [TASK-3 pS373] (H-CSFTDHQRLMKRRK[pS]V-OH; N-terminus assumed)
Kd [1, 7]: ~0.1 µM

14-3-3σ (from UniProt P31947 1-248) (natural protein)
Kd [2]: 100 µM
Kd [3]: 3.6 µM
Kd [4]: 0.742 µM

CSCC[C@H](NC(=O)[C@H](CC(C)C)NC(=O)CNC(=O)[C@H](CCCNC(=N)N)NC(=O)[C@H](Cc1ccccc1)NC(=O)[C@@H](NC(=O)[C@H](CO)NC(=O)[C@H](CC(C)C)NC(=O)[C@H](CO)NC(=O)[C@@H](N)CS)[C@@H](C)O)C(=O)N[C@@H](CCCCN)C(=O)N[C@@H](CCCNC(=N)N)C(=O)N[C@@H](CCCNC(=N)N)C(=O)N[C@@H](COP(=O)(O)O)C(=O)N[C@@H](CO)C(=O)N[C@H](C(=O)O)C(C)C [TASK-1 pS392] (H-CSLSTFRGLMKRR[pS]SV-OH)
Kd ([1]; fluorescence polarization titration, all seven 14-3-3 proteins, read-out: Kd values across the 14-3-3 proteins (approximate, Table S1)): ~100 µM

CSCC[C@H](NC(=O)[C@H](CC(C)C)NC(=O)CNC(=O)[C@H](CCCNC(=N)N)NC(=O)[C@H](Cc1ccccc1)NC(=O)[C@@H](NC(=O)[C@H](CO)NC(=O)[C@H](CC(C)C)NC(=O)[C@H](CO)NC(=O)[C@@H](N)CS)[C@@H](C)O)C(=O)N[C@@H](CCCCN)C(=O)N[C@@H](CCCNC(=N)N)C(=O)N[C@@H](CCCNC(=N)N)C(=O)N[C@@H](COP(=O)(O)O)C(=O)N[C@@H](COP(=O)(O)O)C(=O)N[C@H](C(=O)O)C(C)C [doubly phosphorylated peptide] (H-CSLSTFRGLMKRR[pS][pS]V-OH; N-terminus assumed)
Kd values across the 14-3-3 proteins (approximate, Table S1) ([1]; fluorescence polarization titration, all seven 14-3-3 proteins): high micromolar range

CSCC[C@H](NC(=O)[C@H](CC(C)C)NC(=O)CNC(=O)[C@H](CCCNC(=N)N)NC(=O)[C@H](Cc1ccccc1)NC(=O)[C@@H](NC(=O)[C@H](CO)NC(=O)[C@H](CC(C)C)NC(=O)[C@H](CO)NC(=O)[C@@H](N)CS)[C@@H](C)O)C(=O)N[C@@H](CCCCN)C(=O)N[C@@H](CCCNC(=N)N)C(=O)N[C@@H](CCCNC(=N)N)C(=O)N[C@@H](CO)C(=O)N[C@@H](COP(=O)(O)O)C(=O)N[C@H](C(=O)O)C(C)C [TASK-1 pS393] (H-CSLSTFRGLMKRRS[pS]V-OH; N-terminus assumed)
fold lower affinity for 14-3-3 proteins than the TASK-3 C-terminus ([1]; fluorescence polarization, TASK-1 pS393 versus TASK-3 pS373): 10- to 100 fold
Kd [1, 7]: ~10 µM

B1: 14-3-3τ (natural protein)
chain: MEKTELIQKAKLAEQAERYDDMATCMKAVTEQGAELSNEERNLLSVAYKNVVGGRRSAWRVISSIEQKTDTSDKKLQLIKDYREKVESELRSICTTVLELLDKYLIANATNPESKVFYLKMKGDYFRYLAEVACGDDRKQTIDNSQGAYQEAFDISKKEMQPTHPIRLGLALNFSVFYYEILNNPELACTLAKTAFDEAIAELDTLNEDSYKDSTLIMQLLRDNLTLWTSDSAGEECDAAEGAEN
Kd [5]: 49.4 µM
Kd [2]: 100 µM
Kd [6]: 0.246 µM

B2: 14-3-3ζ (natural protein)
chain: MDKNELVQKAKLAEQAERYDDMAACMKSVTEQGAELSNEERNLLSVAYKNVVGARRSSWRVVSSIEQKTEGAEKKQQMAREYREKIETELRDICNDVLSLLEKFLIPNASQAESKVFYLKMKGDYYRYLAEVAAGDDKKGIVDQSQQAYQEAFEISKKEMQPTHPIRLGLALNFSVFYYEILNSPEKACSLAKTAFDEAIAELDTLSEESYKDSTLIMQLLRDNLTLWTSDTQGDEAEAGEGGEN
Kd [2]: 100 µM
Kd [6]: 0.221 µM

B3: 14-3-3η (natural protein)
chain: MGDREQLLQRARLAEQAERYDDMASAMKAVTELNEPLSNEDRNLLSVAYKNVVGARRSSWRVISSIEQKTMADGNEKKLEKVKAYREKIEKELETVCNDVLSLLDKFLIKNCNDFQYESKVFYLKMKGDYYRYLAEVASGEKKNSVVEASEAAYKEAFEISKEQMQPTHPIRLGLALNFSVFYYEIQNAPEQACLLAKQAFDDAIAELDTLNEDSYKDSTLIMQLLRDNLTLWTSDQQDEEAGEGN
Kd [2]: 100 µM
Kd [3]: 0.11 µM
Kd [6]: 0.115 µM

From publication PMC4760375, “A dual phosphorylation switch controls 14-3-3-dependent cell surface expression of TASK-1” (Journal of Cell Science, 2016)
